Key:
[1] = target: GLP-1 receptor on Rinm cells; test: cell-based or functional assay
[2] = target: GLP-1 peptide (UniProt P01275)
[3] = target: wt GLP-1 mimetibody construct (GLP-1 MMB), IgG1 scaffold (UniProt P01275)
wt GLP-1 mimetibody construct (GLP-1 MMB), IgG1 scaffold, sequence (P01275 whole entry, looked up): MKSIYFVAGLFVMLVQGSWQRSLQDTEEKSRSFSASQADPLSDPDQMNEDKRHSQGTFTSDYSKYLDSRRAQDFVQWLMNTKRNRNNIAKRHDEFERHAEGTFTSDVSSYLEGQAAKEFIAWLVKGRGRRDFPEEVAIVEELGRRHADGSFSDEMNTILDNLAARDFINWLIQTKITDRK

GLP-1 peptide, sequence (P01275 98-127): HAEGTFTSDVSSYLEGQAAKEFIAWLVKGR

Row | concentration dependent cAMP activity, EC50 (Rinm cells) [1] [nM] | Substance | DPP-IV cleavage assay (intact peptide by GLP-1 Active ELISA) [2] | DPP-IV cleavage assay (intact MMB by GLP-1 Active ELISA) [3]
1 | 0.4 | GLP-1 peptide (from UniProt P01275 98-127) | – | –
2 | 11 | wt GLP-1 mimetibody construct (GLP-1 MMB), IgG1 scaffold (from UniProt P01275 98-128) (Fc fusion) | – | –
3 | – | DPP-IV (R&D Systems) | The GLP-1 MMB was significantly more resistant to cleavage by DPP-IV, relative to the GLP-1 peptide | The GLP-1 MMB was significantly more resistant to cleavage by DPP-IV, relative to the GLP-1 peptide

— patent US20090098108A1
